In paper doi:10.1101/2022.02.13.480237 (bioRxiv, 2022):
Substitutions are numbered along the chain they refer to. Values belong to the binder of their own block, whether it stands above or below them.

Columns and labels:
[1] = target: T1, GST^4CS-RGA recombinant protein (REPRESSOR-OF-ga1-3) (Arabidopsis, UniProt Q9SLH3 1-587); experiment: pull-down
T1 sequence (looked up): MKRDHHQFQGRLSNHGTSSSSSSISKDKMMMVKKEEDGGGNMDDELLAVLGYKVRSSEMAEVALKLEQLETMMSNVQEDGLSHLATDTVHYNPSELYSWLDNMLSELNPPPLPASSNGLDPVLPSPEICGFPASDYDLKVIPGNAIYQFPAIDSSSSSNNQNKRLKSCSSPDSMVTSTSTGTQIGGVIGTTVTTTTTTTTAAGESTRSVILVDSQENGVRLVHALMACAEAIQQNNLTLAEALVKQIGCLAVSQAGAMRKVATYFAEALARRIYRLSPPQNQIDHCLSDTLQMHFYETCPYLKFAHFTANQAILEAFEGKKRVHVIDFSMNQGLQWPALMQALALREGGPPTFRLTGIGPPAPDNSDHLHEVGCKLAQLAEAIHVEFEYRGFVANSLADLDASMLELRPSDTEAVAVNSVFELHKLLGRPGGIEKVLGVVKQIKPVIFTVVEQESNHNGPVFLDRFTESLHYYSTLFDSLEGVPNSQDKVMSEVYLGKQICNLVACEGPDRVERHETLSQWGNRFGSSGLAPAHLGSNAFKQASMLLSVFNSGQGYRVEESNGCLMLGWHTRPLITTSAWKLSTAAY

[2] = target: T2, GST^4CS-RGA^C374S recombinant protein (Arabidopsis, UniProt Q9SLH3 1-587, C374S); experiment: pull-down
T2 sequence (looked up): T1 sequence (looked up) with C374S

binding result [1]: binds
B1: His-GID1c recombinant protein (GA-… DWARF1c) (receptor, Arabidopsis, UniProt Q940G6 1-344, looked up)
chain: MAGSEEVNLIESKTVVPLNTWVLISNFKLAYNLLRRPDGTFNRHLAEFLDRKVPANANPVNGVFSFDVIIDRQTNLLSRVYRPADAGTSPSITDLQNPVDGEIVPVIVFFHGGSFAHSSANSAIYDTLCRRLVGLCGAVVVSVNYRRAPENRYPCAYDDGWAVLKWVNSSSWLRSKKDSKVRIFLAGDSSGGNIVHNVAVRAVESRIDVLGNILLNPMFGGTERTESEKRLDGKYFVTVRDRDWYWRAFLPEGEDREHPACSPFGPRSKSLEGLSFPKSLVVVAGLDLIQDWQLKYAEGLKKAGQEVKLLYLEQATIGFYLLPNNNHFHTVMDEIAAFVNAECQ

binding result [1]: binds
B2: His-GID1a recombinant protein (GA-… DWARF1a) (receptor, Arabidopsis, UniProt Q9MAA7 1-345, looked up)
chain: MAASDEVNLIESRTVVPLNTWVLISNFKVAYNILRRPDGTFNRHLAEYLDRKVTANANPVDGVFSFDVLIDRRINLLSRVYRPAYADQEQPPSILDLEKPVDGDIVPVILFFHGGSFAHSSANSAIYDTLCRRLVGLCKCVVVSVNYRRAPENPYPCAYDDGWIALNWVNSRSWLKSKKDSKVHIFLAGDSSGGNIAHNVALRAGESGIDVLGNILLNPMFGGNERTESEKSLDGKYFVTVRDRDWYWKAFLPEGEDREHPACNPFSPRGKSLEGVSFPKSLVVVAGLDLIRDWQLAYAEGLKKAGQEVKLMHLEKATVGFYLLPNNNHFHNVMDEISAFVNAEC

binding result [2]: binds
B3: His-SLY1 recombinant protein (F-box protein SLEEPY1) (natural protein, Arabidopsis, UniProt Q9STX3 1-151, looked up)
chain: MKRSTTDSDLAGDAHNETNKKMKSTEEEEIGFSNLDENLVYEVLKHVDAKTLAMSSCVSKIWHKTAQDERLWELICTRHWTNIGCGQNQLRSVVLALGGFRRLHSLYLWPLSKPNPRARFGKDELKLTLSLLSIRYYEKMSFTKRPLPESK
